Data set [1] has as its target T1, 6xHis-DnaA (Mtb) (Mycobacterium tuberculosis) (UniProt P9WNW3).
T1 sequence: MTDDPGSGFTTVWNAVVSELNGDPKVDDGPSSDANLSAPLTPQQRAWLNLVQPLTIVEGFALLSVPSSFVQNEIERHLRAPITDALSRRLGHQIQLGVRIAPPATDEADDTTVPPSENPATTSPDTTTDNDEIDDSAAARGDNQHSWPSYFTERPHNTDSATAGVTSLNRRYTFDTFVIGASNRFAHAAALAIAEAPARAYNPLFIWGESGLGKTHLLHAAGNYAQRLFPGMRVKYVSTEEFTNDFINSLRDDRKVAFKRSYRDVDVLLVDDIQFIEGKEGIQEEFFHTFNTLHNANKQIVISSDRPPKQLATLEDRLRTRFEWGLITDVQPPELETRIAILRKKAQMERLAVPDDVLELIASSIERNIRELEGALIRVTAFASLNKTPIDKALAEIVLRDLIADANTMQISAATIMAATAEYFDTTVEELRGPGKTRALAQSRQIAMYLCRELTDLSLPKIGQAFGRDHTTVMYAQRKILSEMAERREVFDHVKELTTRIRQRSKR
Put plainly: EMSA. On the technique in general: Mobility shift assays separate free from complexed probe on a gel.

The subject of data set [2] is 6xHis-DnaA (Mtb) (Mycobacterium tuberculosis). Put plainly: EMSA.

Regarding “CCCTACACGACGCTCTTCCGACCCTCTCACCACTGCAGACAAAGTTATCCACAGACGCTATCAACAGTGGGGATGAATCACATGCGTGTGATTGAGTGACCAAAAGGTTGCTGGCACAGTAACGACCCGACCAGAATATGAATTCATTCTATCGGCGGCG (double strand) [Rv0010c-Rv0011c intergenic fragment]”, the binding result in data set [1] is listed as “binds”.
Take oriC fragment: the Kd (usually a measure of binding affinity in units of concentration) in data set [2] was 70 nM.

Source of the values: PMC7738170.
